# Where a chain is given by its changes, count along the chain named.
# T1: CD147 L62A (human)
# T1 chain: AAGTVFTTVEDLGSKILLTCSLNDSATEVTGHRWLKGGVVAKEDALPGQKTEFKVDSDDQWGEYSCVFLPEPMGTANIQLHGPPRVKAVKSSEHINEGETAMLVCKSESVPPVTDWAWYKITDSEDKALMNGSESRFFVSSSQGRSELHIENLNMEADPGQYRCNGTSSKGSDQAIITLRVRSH
# T2: CD147 K63A (human)
# T2 chain: T1 chain with A41L, K42A
# T3: CD147 K63A/D65A double mutant (human)
# T3 chain: T1 chain with A41L, K42A, D44A
# T4: CD147 D65A (human)
# T4 chain: T1 chain with A41L, D44A
# T5: ectodomain of CD147 (CD147_(ecto)), wild type (human)
# T5 chain: T1 chain with A41L
# T6: CD147 E64A (human)
# T6 chain: T1 chain with A41L, E43A
# B1: anti-CD147 mAb 5A12 (antibody, V domains shown)
# VH: EVKLEESGGGLVQPGGSMKLSCVASGFTFSNYWMHWVRQSPEKGLEWVAEIRLKSINYATHYAESVKGRFTISRDDSKSSVYLQMNNLRTEDTGIYYCTSYDYEYWGQGTLITVSA
# VL: NIVMTQSPKSMSMSVGERVTLSCKASEIVGTYVSWYQQKPEQSPKLLIYGASNRYTGVPDRFTGSGSATDFTLTISSVQAEDLADYHCGQSYSYPFTFGSGTKLEIK
# What was measured:
# Test in all cases: SPR
# CD147 L62A = target: T1, CD147 L62A
# CD147 K63A = target: T2, CD147 K63A
# [1] = target: T3, CD147 K63A/D65A double mutant
# CD147 D65A = target: T4, CD147 D65A
# [2] = target: T5, ectodomain of CD147 (CD147_(ecto)), …
# CD147 E64A = target: T6, CD147 E64A
# CD147 V61A = target: CD147 V61A
binder,measurement,setting,value
B1,Kd,CD147 L62A,2.71 nM
same,Kd,CD147 K63A,576 nM
same,Kd,[1],115 nM
same,Kd,CD147 D65A,12.7 nM
same,Kd,[2],0.566 nM
same,Kd,CD147 E64A,7.07 nM
same,Kd,CD147 V61A,0.97 nM

# From publication PMC6804595 (2018)
